According to PMC5446404, “Fortilin binds IRE1α and prevents ER stress from signaling apoptotic cell death” (Nature Communications, 2017):

Columns and labels:
bovine serum albumin = molecular target: T1, bovine serum albumin (bovine, UniProt P02769 25-607); assay: BLI; BLItz (ForteBio); biotinylated fortilin immobilised on streptavidin-coated biosensors (25 μg/mL, 600 s), buffer exchange in PBS; analyte at various concentrations for 180 s, dissociation in PBS for 300 s; three independent experiments; settings: both partners purified
T1 construct: serum albumin, bovine; negative control of the biolayer interferometry; also called BSA; source: bought: Sigma-Aldrich

GST-IRE1α-C (aa 468-977) = GST-IRE1α-C (aa 468-977) (human, UniProt O75460 468-977); assay: cell-based or functional assay
Sequence of GST-IRE1α-C (aa 468-977) (O75460 468-977): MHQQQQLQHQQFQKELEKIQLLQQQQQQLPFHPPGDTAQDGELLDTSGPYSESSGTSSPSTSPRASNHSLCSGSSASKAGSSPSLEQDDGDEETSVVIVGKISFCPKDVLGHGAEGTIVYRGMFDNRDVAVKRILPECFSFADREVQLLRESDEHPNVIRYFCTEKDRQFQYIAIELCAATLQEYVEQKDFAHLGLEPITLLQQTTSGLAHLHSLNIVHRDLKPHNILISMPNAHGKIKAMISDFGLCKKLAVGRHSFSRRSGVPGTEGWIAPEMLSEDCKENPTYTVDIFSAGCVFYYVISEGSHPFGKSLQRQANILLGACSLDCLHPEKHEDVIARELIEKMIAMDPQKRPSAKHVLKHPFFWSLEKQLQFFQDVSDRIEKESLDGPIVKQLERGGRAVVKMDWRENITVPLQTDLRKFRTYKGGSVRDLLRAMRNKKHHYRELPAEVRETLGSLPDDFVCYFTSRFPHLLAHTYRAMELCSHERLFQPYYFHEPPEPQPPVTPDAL

T1 sequence (P02769 25-607): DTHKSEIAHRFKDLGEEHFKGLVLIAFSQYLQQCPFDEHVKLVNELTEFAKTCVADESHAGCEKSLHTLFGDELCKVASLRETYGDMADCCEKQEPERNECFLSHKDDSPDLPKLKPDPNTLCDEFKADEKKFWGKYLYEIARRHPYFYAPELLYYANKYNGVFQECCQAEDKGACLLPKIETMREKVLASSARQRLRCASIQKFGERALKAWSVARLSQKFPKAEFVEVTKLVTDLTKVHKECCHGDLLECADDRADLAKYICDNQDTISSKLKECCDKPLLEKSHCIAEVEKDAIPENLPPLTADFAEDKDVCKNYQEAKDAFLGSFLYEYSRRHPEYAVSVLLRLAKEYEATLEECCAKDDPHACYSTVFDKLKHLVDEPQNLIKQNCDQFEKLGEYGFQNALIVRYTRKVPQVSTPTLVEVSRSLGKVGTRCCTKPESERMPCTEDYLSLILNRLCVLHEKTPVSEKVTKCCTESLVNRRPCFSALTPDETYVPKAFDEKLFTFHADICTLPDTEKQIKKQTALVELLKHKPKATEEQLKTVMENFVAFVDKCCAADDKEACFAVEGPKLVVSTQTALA

B1: recombinant human fortilin (Strep-tag II), biotinylated (natural protein, UniProt P13693 1-172, looked up)
chain: MIIYRDLISHDEMFSDIYKIREIADGLCLEVEGKMVSRTEGNIDDSLIGGNASAEGPEGEGTESTVITGVDIVMNHHLQETSFTKEAYKKYIKDYMKSIKGKLEEQRPERVKPFMTGAAEQIKHILANFKNYQFFIGENMNPDGMVALLDYREDGVTPYMIFFKDGLEMEKC
modifications: biotinylated (sites not given)
notes: fortilin (translationally controlled tumor protein), human, described as a 172-amino-acid polypeptide; cDNA encoding human fortilin cloned into pESG-IBA5; Biotinylated for BLI; also called translationally controlled tumor protein; Strep-tagged fortilin; source: 293T cells stably expressing it, purified (Strep-Tactin-Superflow resin)
Kd (bovine serum albumin): 1050 µM | in vitro IRE1α kinase activity: incorporation of γ-33P from [γ-33P]ATP into myelin basic protein; IC50 of fortilin (GST-IRE1α-C (aa 468-977)): 0.77 µM
